Here are results for three molecules from US6399747 (Amgen, dated 2002).

In assay [1] the target is T1, mPAL cDNA clone from the yeast two-hybrid screen, fused to the GAL4 transcription activation domain (yeast; mouse, UniProt Q9Z179 16-668).
T1 construct: Eleven clones were isolated (3 from T-cell, 8 from embryo library); As an in-frame fusion it may start at residue 11; also called GAL4-cDNA fusion; GAL4-TA fusion
T1 sequence: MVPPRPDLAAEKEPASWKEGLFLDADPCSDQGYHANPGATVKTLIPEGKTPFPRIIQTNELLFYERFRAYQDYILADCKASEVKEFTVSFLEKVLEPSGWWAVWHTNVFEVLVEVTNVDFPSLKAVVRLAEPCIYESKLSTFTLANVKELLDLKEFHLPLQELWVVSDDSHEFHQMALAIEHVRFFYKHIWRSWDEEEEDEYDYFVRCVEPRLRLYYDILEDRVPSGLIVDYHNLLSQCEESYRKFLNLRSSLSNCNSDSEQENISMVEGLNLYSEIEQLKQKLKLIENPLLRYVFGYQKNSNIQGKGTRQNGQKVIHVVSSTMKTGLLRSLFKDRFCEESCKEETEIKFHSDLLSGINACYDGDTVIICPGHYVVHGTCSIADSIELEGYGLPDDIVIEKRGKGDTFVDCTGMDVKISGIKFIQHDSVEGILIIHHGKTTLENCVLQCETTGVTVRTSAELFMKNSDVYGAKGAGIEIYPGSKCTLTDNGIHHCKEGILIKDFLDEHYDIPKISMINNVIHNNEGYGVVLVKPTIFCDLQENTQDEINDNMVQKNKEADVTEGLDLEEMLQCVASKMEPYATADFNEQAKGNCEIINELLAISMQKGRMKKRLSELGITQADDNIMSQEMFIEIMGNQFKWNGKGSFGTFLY
Briefly: yeast two-hybrid.

Assay [2] deals with T2, mPAL (amino acids 11 to 648) expressed in 293T cells from pcDNA3.1-mPAL (mouse, UniProt Q9Z179 11-648).
T2 sequence: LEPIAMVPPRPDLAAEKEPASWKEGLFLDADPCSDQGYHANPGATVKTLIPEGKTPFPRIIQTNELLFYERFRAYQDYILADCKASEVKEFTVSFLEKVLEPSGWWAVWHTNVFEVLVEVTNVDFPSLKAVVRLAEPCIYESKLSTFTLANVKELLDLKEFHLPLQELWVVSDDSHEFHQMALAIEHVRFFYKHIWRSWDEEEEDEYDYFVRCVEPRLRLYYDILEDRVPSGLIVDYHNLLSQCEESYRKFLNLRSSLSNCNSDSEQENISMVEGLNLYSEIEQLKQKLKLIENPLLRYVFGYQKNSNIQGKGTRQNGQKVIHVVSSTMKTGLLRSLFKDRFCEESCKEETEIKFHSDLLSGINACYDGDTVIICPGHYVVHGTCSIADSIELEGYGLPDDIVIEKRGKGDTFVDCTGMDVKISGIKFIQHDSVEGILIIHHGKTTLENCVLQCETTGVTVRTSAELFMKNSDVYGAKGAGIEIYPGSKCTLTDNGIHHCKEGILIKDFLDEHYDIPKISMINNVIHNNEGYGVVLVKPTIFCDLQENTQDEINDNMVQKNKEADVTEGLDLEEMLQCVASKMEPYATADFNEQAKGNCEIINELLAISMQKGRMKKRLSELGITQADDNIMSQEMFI
In words: GST pull-down from 293T-mPAL lysate, anti-mPAL immunoblot. The method, then:
To examine the specificity of the mPAL-Shc SH2 interaction, a series of GST-SH2 fusion proteins generated from several signal transduction molecules were tested for their ability to precipitate mPAL. A panel of GST-SH2 fusion proteins generated from several signal transduction molecules (Shc PTB domain, Blaikie et al., *J. Biol. Chem.* 269:23031–32034(1994), Shc SH2 domain, Pellici et al., *Cell* 70:93–104 (1992), Grb2 SH2 domain, Rozakis-Adcock et al., *Nature* 360:689–692 (1992), Vav SH2 domain Margolis et al., *Nature* 356: 71–74 (1992), N-terminal SH2 domain of ras-GAP, N-terminal SH2 domain (p85-N) and C-terminal SH2 domain (p85-C) of p85 subunit of PI-3 kinase, N-terminal SH2 domain (PLCγ-N), and C-terminal SH2 domain (PLCγ-C) of phospholipase C-γ1 Anderson et al., *Science* 250:979–982 (1992), Ellis et al., *Mol. Cell Biol.* 12:991–997(1992), and Nck SH2 domain, Lehman et al., *Nucl. Acids Res.* 18:1048 (1990), were immobilized on glutathione-Sepharose beads.
Background: A western blot detects proteins with antibodies after separation by electrophoresis.

B1: PTB domain of p52 Shc (yeast two-hybrid construct) (other, UniProt P29353-2 1-209, looked up)
chain: MNKLSGGGGRRTRVEGGQLGGEEWTRHGSFVNKPTRGWLHPNDKVMGPGVSYLVRYMGCVEVLQSMRALDFNTRTQVTREAISLVCEAVPGAKGATRRRKPCSRPLSSILGRSNLKFAGMPITLTVSTSSLNLMAADCKQIIANHHMQSISFASGGDPDTAEYVAYVAKDPVNQRACHILECPEGLAQDVISTIGQAFELRFKQYLRNP
notes: domain: PTB; Construct is not described
In the case of B1, in assay [1], the binding result is listed as “no binding”.

B2: GST-Nck SH2 (amino acids 281-377 of human Nck) (other, UniProt P16333 281-377, looked up)
chain: PWYYGKVTRHQAEMALNERGHEGDFLIRDSESSPNDFSVSLKAQGKNKHFKVQLKETVYCIGQRKFSTMEELVEHYKKAPIFTSEQGEKLYLVKHLS
notes: range 281-377; not shown: glutathione S-transferase (GST)
Regarding B2, in assay [2], the binding result is “no binding”.

B3: CH1 domain of p52 Shc (yeast two-hybrid construct) (other, UniProt P29353-2 230-377, looked up)
chain: EEEEPPDHQYYNDFPGKEPPLGGVVDMRLREGAAPGAARPTAPNAQTPSHLGATLPVGQPVGGDPEVRKQMPPPPPCPGRELFDDPSYVNVQNLDKARQAVGGAGPPNPAINGSAPRDLFDMKPFEDALRVPPPPQSVSMAEQLRGEP
notes: domain: CH1; Construct is not described
On to B3, for which the binding result in assay [1] is recorded as “no binding”.
